Paper PMC5789026, “mRNA Processing Factor CstF-50 and Ubiquitin Escort Factor p97 Are BRCA1/BARD1 Cofactors Involved in Chromatin Remodeling during the DNA Damage Response” (Molecular and Cellular Biology, 2017)

Legend:
[1] = target: T1, His-Ub (UniProt P0CG48 1-76); test: pull-down; interaction assay with His-Ub and GST-CstF-50 as described previously (ref. 5); pellets and supernatants analysed by immunoblotting under denaturing PAGE; settings: both partners purified
T1 construct: ubiquitin (Ub), the cut product of its precursor; also called ubiquitin; source: E. coli BL21, purified (Ni-agarose)

[2] = target: T2, ΔBRCA1/BARD1-wt heterodimeric complex (truncated BRCA1 residues 1 to 304 and full-length BARD1) (UniProt P38398 1-304; Q99728 1-777); test: pull-down; ΔBRCA1/BARD1 (wt or Q564H) incubated with GST-CstF-50 and/or His-p97, immunoprecipitated with anti-BARD1 or preimmune sera; washes with buffer A (PBS, 0.01% Nonidet P-40, 0.04% BSA) including 300 mM NaCl; Western blot; settings: both partners purified
T2 construct: truncated BRCA1 spanning the RING domain, residues 1 to 304; full-length BARD1, wild type; also called BRCA1/BARD1 heterodimer
T2 sequence (P38398 1-304, stated change not applied, chain 1 of 2): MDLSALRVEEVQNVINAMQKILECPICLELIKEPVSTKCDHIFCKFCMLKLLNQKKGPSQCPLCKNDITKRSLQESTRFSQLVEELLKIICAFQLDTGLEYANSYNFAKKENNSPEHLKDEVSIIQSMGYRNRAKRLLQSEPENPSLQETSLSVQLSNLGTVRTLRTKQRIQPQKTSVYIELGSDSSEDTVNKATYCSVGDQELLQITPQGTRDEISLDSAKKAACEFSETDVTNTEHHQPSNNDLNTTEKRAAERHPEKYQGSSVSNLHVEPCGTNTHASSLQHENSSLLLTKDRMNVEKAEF
T2 sequence (Q99728 whole entry, stated change not applied, chain 2 of 2, the tested form may be a part): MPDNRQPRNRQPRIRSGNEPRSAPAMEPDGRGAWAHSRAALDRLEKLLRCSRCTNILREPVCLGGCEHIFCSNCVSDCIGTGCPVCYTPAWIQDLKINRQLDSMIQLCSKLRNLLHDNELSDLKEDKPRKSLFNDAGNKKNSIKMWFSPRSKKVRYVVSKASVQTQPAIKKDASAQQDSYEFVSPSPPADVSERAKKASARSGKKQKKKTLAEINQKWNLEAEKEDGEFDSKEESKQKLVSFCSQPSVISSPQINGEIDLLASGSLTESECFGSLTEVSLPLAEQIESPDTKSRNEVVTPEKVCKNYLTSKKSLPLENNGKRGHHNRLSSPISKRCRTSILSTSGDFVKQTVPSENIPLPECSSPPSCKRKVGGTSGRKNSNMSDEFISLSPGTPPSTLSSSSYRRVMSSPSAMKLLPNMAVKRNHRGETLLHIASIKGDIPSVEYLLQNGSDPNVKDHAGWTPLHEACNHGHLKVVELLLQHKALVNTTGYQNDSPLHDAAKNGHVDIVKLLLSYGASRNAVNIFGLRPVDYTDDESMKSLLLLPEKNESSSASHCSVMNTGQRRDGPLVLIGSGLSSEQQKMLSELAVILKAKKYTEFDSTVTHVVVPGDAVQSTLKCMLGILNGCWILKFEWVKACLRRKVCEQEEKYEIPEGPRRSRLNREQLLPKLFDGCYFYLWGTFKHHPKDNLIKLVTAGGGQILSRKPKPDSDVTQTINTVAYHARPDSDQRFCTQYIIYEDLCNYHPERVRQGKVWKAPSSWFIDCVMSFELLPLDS

binding result [1]: binds
binding result [2]: binds
B1: GST-CstF-50 (natural protein, UniProt Q05048 1-431, looked up)
chain: MYRTKVGLKDRQQLYKLIISQLLYDGYISIANGLINEIKPQSVCAPSEQLLHLIKLGMENDDTAVQYAIGRSDTVAPGTGIDLEFDADVQTMSPEASEYETCYVTSHKGPCRVATYSRDGQLIATGSADASIKILDTERMLAKSAMPIEVMMNETAQQNMENHPVIRTLYDHVDEVTCLAFHPTEQILASGSRDYTLKLFDYSKPSAKRAFKYIQEAEMLRSISFHPSGDFILVGTQHPTLRLYDINTFQCFVSCNPQDQHTDAICSVNYNSSANMYVTGSKDGCIKLWDGVSNRCITTFEKAHDGAEVCSAIFSKNSKYILSSGKDSVAKLWEISTGRTLVRYTGAGLSGRQVHRTQAVFNHTEDYVLLPDERTISLCCWDSRTAERRNLLSLGHNNIVRCIVHSPTNPGFMTCSDDFRARFWYRRSTTD
notes: CstF-50 (cleavage stimulation factor 50), recombinant; also called glutathione S-transferase (GST)-CstF-50; source: E. coli BL21, purified (glutathione-agarose)
